# From patent US20170326229A1
# Columns and labels:
# Assay in all cases: ELISA, gp120 on plate
# [1] = biological target: CH505 Env w030.13 gp120 (HIV-1)
# [2] = biological target: CH505 Env w078.33 gp120 (HIV-1)
# [3] = biological target: CH505 Env w100.A13 gp120 (HIV-1)
# [4] = biological target: CH505 Env w053.31 gp120 (HIV-1)
# [5] = biological target: CH505 Env w136.B5 gp120 (HIV-1)
# [6] = biological target: CH505 Env w030.20 gp120 (HIV-1)
# [7] = biological target: CH505 Env w030.21 gp120 (HIV-1)
# [8] = biological target: CH505 Env w078.17 gp120 (HIV-1)
# [9] = biological target: CH505 Env w078.9 gp120 (HIV-1)
# [10] = biological target: CH505 Env w020.15 gp120 (HIV-1)
# [11] = biological target: CH505 Env w053.22 gp120 (HIV-1)
# [12] = biological target: CH505 Env w020.25 gp120 (HIV-1)
# [13] = biological target: CH505 Env w078.15 gp120 (HIV-1)
# [14] = biological target: CH505 Env w030.17 gp120 (HIV-1)
# [15] = biological target: CH505 Env w078.6 gp120 (HIV-1)
# [16] = biological target: CH505 Env w136.B23 gp120 (HIV-1)
# [17] = biological target: CH505 Env w053.15 gp120 (HIV-1)
# [18] = biological target: CH505 Env w136.B10 gp120 (HIV-1)
# [19] = biological target: CH505 transmitted/founder (TF) Env gp120 (HIV-1)
# [20] = biological target: CH505 Env w053.29 gp120 (HIV-1)
# [21] = biological target: CH505 Env w004.54 gp120 (HIV-1)
# [22] = biological target: CH505 Env w100.B4 gp120 (HIV-1)
# [23] = biological target: CH505 Env w100.B2 gp120 (HIV-1)
# [24] = biological target: CH505 Env w136.B2 gp120 (HIV-1)
# [25] = biological target: CH505 Env w020.11 gp120 (HIV-1)
# [26] = biological target: CH505 Env w160.T4 gp120 (HIV-1)
# [27] = biological target: CH505 Env w030.36 gp120 (HIV-1)
Substance,log-transformed AUC [1] [log AUC],log-transformed AUC [2] [log AUC],log-transformed AUC [3] [log AUC],log-transformed AUC [4] [log AUC],log-transformed AUC [5] [log AUC],log-transformed AUC [6] [log AUC],log-transformed AUC [7] [log AUC],log-transformed AUC [8] [log AUC],log-transformed AUC [9] [log AUC],log-transformed AUC [10] [log AUC],log-transformed AUC [11] [log AUC],log-transformed AUC [12] [log AUC],log-transformed AUC [13] [log AUC],log-transformed AUC [14] [log AUC],log-transformed AUC [15] [log AUC],log-transformed AUC [16] [log AUC],log-transformed AUC [17] [log AUC],log-transformed AUC [18] [log AUC],log-transformed AUC [19] [log AUC],log-transformed AUC [20] [log AUC],other results
CH105 (CH103 lineage monoclonal antibody),10.5,8.9,11.4,13.5,10.5,7.1,10.6,9.5,6.6,10.8,9,8.2,10.1,6.7,3.8,13.7,9.4,8.5,11.2,8.5,log-transformed AUC [21]: 8.3 log AUC; log-transformed AUC [22]: 11.9 log AUC; log-transformed AUC [23]: 7.5 log AUC; log-transformed AUC [24]: 12.4 log AUC; log-transformed AUC [25]: 3.6 log AUC; log-transformed AUC [26]: 12.2 log AUC; log-transformed AUC [27]: 7.5 log AUC
CH106 (CH103 lineage monoclonal antibody),11.9,9.5,12,13.4,10.9,7.3,10.9,8.7,8.3,10.5,9.8,9.4,11,8.2,6.7,13.3,10.1,9,11.3,9.7,log-transformed AUC [21]: 8.1 log AUC; log-transformed AUC [22]: 12.6 log AUC; log-transformed AUC [23]: 7.8 log AUC; log-transformed AUC [24]: 12.7 log AUC; log-transformed AUC [25]: 5.4 log AUC; log-transformed AUC [26]: 12.3 log AUC; log-transformed AUC [27]: 8.5 log AUC
